Measurements as given in patent US12723279B2, “Long stokes shift chromenoquinoline dyes and uses in sequencing applications” (priority 2020, dated 2026).

Tests used:
Assay type in all cases: physicochemical
[1] = UV-Vis absorption of chromenoquinoline dye labeled ffA nucleotides
Description: (§1) The chromenoquinoline dye of Formula (I) (0.020 mmol) was coevaporated with 2×2 mL of anhydrous N,N′-dimethylformamide (DMF), then dissolved in 2 mL of anhydrous N,N′-dimethylacetamide (DMA). N,N-diisopropylethylamine (28.4 μL, 0.163 mmol) was added, followed by N,N,N′,N′-tetramethyl-O—(N-succinimidyl)uronium tetrafluoroborate as 0.1 M solution in anhydrous DMA (TSTU, 232 μL, 0.023 mmol). The reaction was stirred under nitrogen at RT for 30 minutes. In the meantime, an aqueous solution of the 2′-deoxyadenosine triphosphates-linker (0.01 mmol) was evaporated to dryness under reduced pressure and resuspended in 200 μL, of 0.1 M triethylammonium bicarbonate (TEAB) solution in water. The activated chromenoquinoline dye solution was added to the triphosphate and the reaction was stirred at RT for 18 hours. The crude product was purified firstly by ion-exchange chromatography on DEAE-Sephadex A25 (25 g). The fractions containing the triphosphate were pooled and the solvent was evaporated to dryness under reduced pressure. The crude material was further purified by preparative scale RP-HPLC using a YMC-Pack-Pro C18 column. The final compound was characterized by LC-MS, analytical RP-HPLC and UV-Vis spectroscopy.
(§2) In this example, the spectral properties of several fully functionalized A nucleotides (ffAs) conjugated with the chromenoquinoline dyes described herein were characterized. FIG. 1 illustrates the […] of ffA nucleotides conjugated with chromenoquinoline dyes I-1 through I-6 and I-8 as a 2 μM solution in Universal Scan Mix (USM, 1 M Tris pH 7.5, 0.05% TWEEN, 20 mM sodium ascorbate, 10 mM ethyl gallate). FIGS. 2A-2D show the fluorescence emission spectra of ffA nucleotide conjugated with chromenoquinoline dyes I-1 through I-6 and I-8 acquired using either 450 nm or 520 nm as excitation wavelengths in USM. The spectra were acquired on an Agilent Cary 100 UV-Vis Spectrophotometer and on a Cary Eclipse Fluorescence Spectrophotometer, using quartz or plastic cuvettes. It was observed that the chromenoquinoline dyes described herein can be excited under both blue and green light sources and also have strong fluorescent emission.

[2] = Fluorescence emission of chromenoquinoline dye labeled ffA nucleotides
Description: as §1, §2

[3] = Stability of dye labeled ffAs in aqueous solution at high pH (ethanolamine and glycine buffers, 45° C.); details: 10 μM, dark, vs ffC labeled with coumarin reference dye A
Description: The stability of the compounds ffA-sPA-I-3 and ffA-sPA-I-4 in an aqueous solution at high pH was assessed by incubating a 10 μM solution of the given compound in two buffers: 1) 50 mM ethanolamine buffer, pH 9.6, 50 mM NaCl, 1 mM EDTA, 0.02% CHAPS, 4 mM MgSO4; 2) 50 mM glycine buffer, pH 9.8, 50 mM NaCl, 1 mM EDTA, 0.2% CHAPS, 4 mM MgSO4 at 45° C. in the dark for 6 days. At set time points, the UV-VIS absorption and fluorescence emission of the solutions were measured on an Agilent Cary 100 UV-Vis Spectrophotometer and on a Cary Eclipse Fluorescence Spectrophotometer, using quartz cuvettes. In addition, aliquots of the solutions were taken and analyzed by analytical HPLC. […] The coumarin reference dye A is disclosed in U.S. Publication No. 2018/0094140, having the structure moiety

[4] = 50 mM ethanolamine buffer pH 9.6, 45° C., 6 days (FIG. 3A)
[5] = 50 mM glycine buffer pH 9.8, 45° C., 6 days (FIG. 3B)

| Structure (SMILES) | UV-VIS λmax [1] [nm] | Fluorescence em. λmax [2] [nm] | fluorescence emission over time [3, 4] | fluorescence emission over time [3, 5] |
| --- | --- | --- | --- | --- |
| C=CCOCOC1C[C@H](n2cc(/C=C/CNC(=O)COC(COc3cccc(C(=O)NCCCCCNC(=O)CCCN4CCCc5cc6c(cc54)OCc4cc5cc(OC)c(OC)cc5[n+](C)c4-6)c3)OCC=C)c3c(N)ncnc32)O[C@@H]1COP(=O)(O)OP(=O)(O)OP(=O)(O)O (stereo partly shown) [ffA-(DB)-AOM-AOL-I-4] | 500 | 578 | – | – |
| COc1cc2cc3c([n+](C)c2cc1OC)-c1cc2c(cc1OC3)N(CCCC(=O)NCCCCCNC(=O)c1cccc(OCC(N=[N+]=[N-])OCC(=O)NCC#Cc3cn([C@H]4CC(OCN=[N+]=[N-])[C@@H](COP(=O)(O)OP(=O)(O)OP(=O)(O)O)O4)c4ncnc(N)c34)c1)CCC2 (stereo partly shown) [ffA-sPA-LN3-I-4] | 500 | 578 | decreased very slowly over time | decreased very slowly over time |
| Cc1cc2cc3c([n+](C)c2cc1C)-c1cc2c(cc1OC3)N(CCCC(=O)NCCCCCNC(=O)c1cccc(OCC(N=[N+]=[N-])OCC(=O)NCC#Cc3cn([C@H]4CC(OCN=[N+]=[N-])[C@@H](COP(=O)(O)OP(=O)(O)OP(=O)(O)O)O4)c4ncnc(N)c34)c1)CCC2 (stereo partly shown) [ffA-sPA-LN3-I-3] | 500 | 578 | decreased very slowly over time | decreased very slowly over time |
| C=CCOCOC1C[C@H](n2cc(C#CCNC(=O)COC(COc3cccc(C(=O)NCCCCCNC(=O)CCCN4CCCc5cc6c(cc54)OCc4cc5cc(OC)c(OC)cc5[n+](C)c4-6)c3)OCC=C)c3c(N)ncnc32)O[C@@H]1COP(=O)(O)OP(=O)(O)OP(=O)(O)O (stereo partly shown) [ffA-AOM-AOL-I-4] | 500 | 578 | – | – |
| COc1cc2c(cc3c([n+]2C)-c2cc4c(cc2OC3)N(CCCC(=O)NCCCCCNC(=O)c2cccc(OCC(N=[N+]=[N-])OCC(=O)NCC#Cc3cn([C@H]5CC(OCN=[N+]=[N-])[C@@H](COP(=O)(O)OP(=O)(O)OP(=O)(O)O)O5)c5ncnc(N)c35)c2)CCC4)c(OC)c1OC (stereo partly shown) [ffA-sPA-LN3-I-8] | 500 | 583 | – | – |
| CCN(CC)c1ccc2c(c1)OCc1cc3cc(CC(=O)NCCNC(=O)c4cccc(OCC(N=[N+]=[N-])OCCOCC(=O)NCC#Cc5cn([C@H]6CC(OCN=[N+]=[N-])[C@@H](COP(=O)(O)OP(=O)(O)OP(=O)(O)O)O6)c6ncnc(N)c56)c4)ccc3[n+](C)c1-2 (stereo partly shown) [ffA-LN3-I-6] | 495 | 574 | – | – |
| COc1ccc2c(c1)cc1c([n+]2C)-c2cc3c(cc2OC1)N(CCCC(=O)NCCNC(=O)c1cccc(OCC(N=[N+]=[N-])OCCOCC(=O)NCC#Cc2cn([C@H]4CC(OCN=[N+]=[N-])[C@@H](COP(=O)(O)OP(=O)(O)OP(=O)(O)O)O4)c4ncnc(N)c24)c1)CCC3 (stereo partly shown) [ffA-LN3-I-1] | 503 | 590 | – | – |
| Cc1ccc2c(c1)cc1c([n+]2C)-c2cc3c(cc2OC1)N(CCCC(=O)NCCNC(=O)c1cccc(OCC(N=[N+]=[N-])OCCOCC(=O)NCC#Cc2cn([C@H]4CC(OCN=[N+]=[N-])[C@@H](COP(=O)(O)OP(=O)(O)OP(=O)(O)O)O4)c4ncnc(N)c24)c1)CCC3 (stereo partly shown) [ffA-LN3-I-2] | 500 | 582 | – | – |
| COc1ccc2c(c1)cc1c([n+]2C)-c2cc3c(cc2OC1)N(CCCC(=O)NCCNC(=O)c1cccc(OCC(N=[N+]=[N-])OCCOCC(=O)NCC#Cc2cn([C@H]4CC(OCN=[N+]=[N-])[C@@H](COP(=O)(O)OP(=O)(O)OP(=O)(O)O)O4)c4ncnc(N)c24)c1)C(C)(C)CC3C (stereo partly shown) [ffA-LN3-I-5] | 501 | 585 | – | – |
